This note sets out measurements from paper PMC11609053.

The target of data set [1] is T1, SCAB_Lrp2 (Streptomyces scabies 87.22) (UniProt C9Z7M0).
T1 sequence: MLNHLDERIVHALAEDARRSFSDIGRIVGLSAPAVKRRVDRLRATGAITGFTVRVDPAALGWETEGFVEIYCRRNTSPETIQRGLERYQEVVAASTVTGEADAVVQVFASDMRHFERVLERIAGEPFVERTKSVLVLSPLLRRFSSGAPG
In words: EMSA. To be noted: 20 uL: 50 ng biotin-labelled probe, 0-400 nM protein, 2 uL binding buffer (Liu et al. 2023; composition, pH and temperature not given), chemiluminescent …. For orientation: In EMSA bound probe runs differently from free probe, usually more slowly.

For data set [2], the target named is T2, SCAB_Lrp (Streptomyces scabies 87.22?) (UniProt C9ZB67).
T2 sequence: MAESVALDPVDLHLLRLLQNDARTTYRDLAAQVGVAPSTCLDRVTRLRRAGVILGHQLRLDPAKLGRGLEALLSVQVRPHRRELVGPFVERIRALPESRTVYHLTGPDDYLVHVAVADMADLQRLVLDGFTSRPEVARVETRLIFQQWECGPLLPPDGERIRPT
In words: EMSA. Conditions: 20 uL: 50 ng biotin-labelled probe, 0-400 nM protein, 2 uL binding buffer (Liu et al. 2023; composition, pH and temperature not given), chemiluminescent ….

Consider “AAGGCAGTACCTTGCGCTCGGCGCGTCGGCCGGAAATCGAGTGAAGCAAGATGCTTCCCCCTTCTCGGCTCCGAGCGCGACAAACAGTTCAGAACAGGCCACGGCGAGATCCTCCGCAAGGAACGAACCCAGTCGTTCACCCGCTTAGTTTGATTGAAATTTCAACTACCAGGTCAATCG (double strand) [PtxtR]”, for which the binding result in data set [1] is “binds”.
Consider “GTCGTCTTCGGCGTCTGGATGGCCGCCGGGCTCGTGTTCTACTTCAGTTACGGCCACCGGCGCTCGCGTCTGGCTGCGGCCCCGGCCCCCGCCGACCCCACGTCCCCGCCGGCTCCCCCGTCCACGTCCCCGTCGACTCCAGAGAAGTGATCCACCCGCAGTGCTGAACCATCTCGACGA (double strand) [P75421]”, for which the binding entry in data set [2] and in data set [1] was “binds” each time.
